The source of these data is patent US20220298218A1 (ANTAG THERAPEUTICS, published 2022).

Where two headings read alike, the source gives them in different places. *1 amine or outer side, *2 acyl side, *3 side chain or, on linkers, in order; H or OH if unused. Where no end group is shown, it is not given here. Side-chain parts run from the residue outwards. The star is where a group is joined. C16 diacid = O=C(O)CCCCCCCCCCCCCCC(=O)*; γGlu = O=C(O)[C@H](CCC(=O)[*:2])N[*:1]; AEEA = NCCOCCOCC(=O)O

Assay [1] addresses T1, human GIP receptor (human, UniProt P48546 22-466).
T1 sequence (looked up): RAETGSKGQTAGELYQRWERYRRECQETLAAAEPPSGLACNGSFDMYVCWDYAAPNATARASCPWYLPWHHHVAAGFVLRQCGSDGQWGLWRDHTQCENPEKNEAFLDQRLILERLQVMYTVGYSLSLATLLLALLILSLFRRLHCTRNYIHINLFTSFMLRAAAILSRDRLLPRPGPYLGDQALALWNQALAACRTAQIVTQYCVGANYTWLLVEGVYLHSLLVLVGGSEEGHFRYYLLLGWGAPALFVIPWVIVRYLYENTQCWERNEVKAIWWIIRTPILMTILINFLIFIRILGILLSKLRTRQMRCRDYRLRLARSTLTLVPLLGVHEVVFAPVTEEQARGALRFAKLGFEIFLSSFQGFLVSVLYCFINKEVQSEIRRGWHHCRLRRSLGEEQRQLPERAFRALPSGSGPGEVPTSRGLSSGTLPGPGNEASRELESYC
Description: cell-based or functional assay.

The target in assay [2] is T1, human GIP receptor. Description: cell-based or functional assay. The source holds these as a separate data set.

B1: AT473 (peptide)
peptide: EGTFISDYSIAMDKIK(C16 diacid)QQDFVNWLLAQKGPS-OH
modifications: N-terminus assumed
SMILES: CC[C@H](C)[C@H](NC(=O)[C@H](CO)NC(=O)[C@H](Cc1ccc(O)cc1)NC(=O)[C@H](CC(=O)O)NC(=O)[C@H](CO)NC(=O)[C@@H](NC(=O)[C@H](Cc1ccccc1)NC(=O)[C@@H](NC(=O)CNC(=O)[C@@H](N)CCC(=O)O)[C@@H](C)O)[C@@H](C)CC)C(=O)N[C@@H](C)C(=O)N[C@@H](CCSC)C(=O)N[C@@H](CC(=O)O)C(=O)N[C@@H](CCCCN)C(=O)N[C@H](C(=O)N[C@@H](CCCCNC(=O)CCCCCCCCCCCCCCC(=O)O)C(=O)N[C@@H](CCC(N)=O)C(=O)N[C@@H](CCC(N)=O)C(=O)N[C@@H](CC(=O)O)C(=O)N[C@@H](Cc1ccccc1)C(=O)N[C@H](C(=O)N[C@@H](CC(N)=O)C(=O)N[C@@H](Cc1c[nH]c2ccccc12)C(=O)N[C@@H](CC(C)C)C(=O)N[C@@H](CC(C)C)C(=O)N[C@@H](C)C(=O)N[C@@H](CCC(N)=O)C(=O)N[C@@H](CCCCN)C(=O)NCC(=O)N1CCC[C@H]1C(=O)N[C@@H](CO)C(=O)O)C(C)C)[C@@H](C)CC
For the molecule B1, in the assay with human GIP receptor [1], the “cAMP antagonism” value was 26 nM, the “cAMP antagonism % inhib” value came out at 100% and the cAMP antagonism log was -7.6 log M. Besides, in the assay with human GIP receptor [2], the “cAMP agonism % Emax” value came to 0%, the “cAMP antagonism” value came to 2.93 nM, the “cAMP antagonism % inhib” value was 88% and the “cAMP antagonism pIC50” value was 8.5.

B2: AT472 (peptide)
peptide: EGTFISDYSIAMDKIK(C16 diacid)QQDFVNWLLAQKGPSS-OH
modifications: N-terminus assumed
SMILES: CC[C@H](C)[C@H](NC(=O)[C@H](CO)NC(=O)[C@H](Cc1ccc(O)cc1)NC(=O)[C@H](CC(=O)O)NC(=O)[C@H](CO)NC(=O)[C@@H](NC(=O)[C@H](Cc1ccccc1)NC(=O)[C@@H](NC(=O)CNC(=O)[C@@H](N)CCC(=O)O)[C@@H](C)O)[C@@H](C)CC)C(=O)N[C@@H](C)C(=O)N[C@@H](CCSC)C(=O)N[C@@H](CC(=O)O)C(=O)N[C@@H](CCCCN)C(=O)N[C@H](C(=O)N[C@@H](CCCCNC(=O)CCCCCCCCCCCCCCC(=O)O)C(=O)N[C@@H](CCC(N)=O)C(=O)N[C@@H](CCC(N)=O)C(=O)N[C@@H](CC(=O)O)C(=O)N[C@@H](Cc1ccccc1)C(=O)N[C@H](C(=O)N[C@@H](CC(N)=O)C(=O)N[C@@H](Cc1c[nH]c2ccccc12)C(=O)N[C@@H](CC(C)C)C(=O)N[C@@H](CC(C)C)C(=O)N[C@@H](C)C(=O)N[C@@H](CCC(N)=O)C(=O)N[C@@H](CCCCN)C(=O)NCC(=O)N1CCC[C@H]1C(=O)N[C@@H](CO)C(=O)N[C@@H](CO)C(=O)O)C(C)C)[C@@H](C)CC
For the molecule B2, in the assay with human GIP receptor [1], the “cAMP antagonism” value worked out at 15 nM, the “cAMP antagonism % inhib” value was determined as 100% and the cAMP antagonism log is -7.8 log M. In addition, in the assay with human GIP receptor [2], the “cAMP agonism % Emax” value is 0%, the “cAMP antagonism” value came to 7.94 nM, the “cAMP antagonism % inhib” value is 90% and the “cAMP antagonism pIC50” value stood at 8.1.

B3: AT415 (peptide)
peptide: EGTFISDYSIAMDKIK([AEEA-AEEA-γGlu-C16 diacid])QQDFVNWLLAQKGKKNDW-OH
modifications: N-terminus assumed
SMILES: CC[C@H](C)[C@H](NC(=O)[C@H](CO)NC(=O)[C@H](Cc1ccc(O)cc1)NC(=O)[C@H](CC(=O)O)NC(=O)[C@H](CO)NC(=O)[C@@H](NC(=O)[C@H](Cc1ccccc1)NC(=O)[C@@H](NC(=O)CNC(=O)[C@@H](N)CCC(=O)O)[C@@H](C)O)[C@@H](C)CC)C(=O)N[C@@H](C)C(=O)N[C@@H](CCSC)C(=O)N[C@@H](CC(=O)O)C(=O)N[C@@H](CCCCN)C(=O)N[C@H](C(=O)N[C@@H](CCCCNC(=O)COCCOCCNC(=O)COCCOCCNC(=O)CC[C@H](NC(=O)CCCCCCCCCCCCCCC(=O)O)C(=O)O)C(=O)N[C@@H](CCC(N)=O)C(=O)N[C@@H](CCC(N)=O)C(=O)N[C@@H](CC(=O)O)C(=O)N[C@@H](Cc1ccccc1)C(=O)N[C@H](C(=O)N[C@@H](CC(N)=O)C(=O)N[C@@H](Cc1c[nH]c2ccccc12)C(=O)N[C@@H](CC(C)C)C(=O)N[C@@H](CC(C)C)C(=O)N[C@@H](C)C(=O)N[C@@H](CCC(N)=O)C(=O)N[C@@H](CCCCN)C(=O)NCC(=O)N[C@@H](CCCCN)C(=O)N[C@@H](CCCCN)C(=O)N[C@@H](CC(N)=O)C(=O)N[C@@H](CC(=O)O)C(=O)N[C@@H](Cc1c[nH]c2ccccc12)C(=O)O)C(C)C)[C@@H](C)CC
Turning to B3, in the assay with human GIP receptor [1], the “cAMP agonism Emax” value came to 4.6, the “cAMP antagonism” value was found to be 55 nM, the “cAMP antagonism % inhib” value worked out at 87% and the cAMP antagonism log is -7.3 log M. In the assay with human GIP receptor [2], the “cAMP agonism % Emax” value is 0%, the “cAMP antagonism” value amounted to 13.6 nM, the “cAMP antagonism % inhib” value is 87% and the “cAMP antagonism pIC50” value worked out at 7.9.

B4: AT447 (peptide)
peptide: EGTFISDYSIAMDKIK(C16 diacid)QQDFVNWLLAQKG-OH
modifications: N-terminus assumed
SMILES: CC[C@H](C)[C@H](NC(=O)[C@H](CO)NC(=O)[C@H](Cc1ccc(O)cc1)NC(=O)[C@H](CC(=O)O)NC(=O)[C@H](CO)NC(=O)[C@@H](NC(=O)[C@H](Cc1ccccc1)NC(=O)[C@@H](NC(=O)CNC(=O)[C@@H](N)CCC(=O)O)[C@@H](C)O)[C@@H](C)CC)C(=O)N[C@@H](C)C(=O)N[C@@H](CCSC)C(=O)N[C@@H](CC(=O)O)C(=O)N[C@@H](CCCCN)C(=O)N[C@H](C(=O)N[C@@H](CCCCNC(=O)CCCCCCCCCCCCCCC(=O)O)C(=O)N[C@@H](CCC(N)=O)C(=O)N[C@@H](CCC(N)=O)C(=O)N[C@@H](CC(=O)O)C(=O)N[C@@H](Cc1ccccc1)C(=O)N[C@H](C(=O)N[C@@H](CC(N)=O)C(=O)N[C@@H](Cc1c[nH]c2ccccc12)C(=O)N[C@@H](CC(C)C)C(=O)N[C@@H](CC(C)C)C(=O)N[C@@H](C)C(=O)N[C@@H](CCC(N)=O)C(=O)N[C@@H](CCCCN)C(=O)NCC(=O)O)C(C)C)[C@@H](C)CC
Take B4: in the assay with human GIP receptor [1], the “cAMP agonism Emax” value stood at 4.2, the “cAMP antagonism” value was determined as 9 nM, the “cAMP antagonism % inhib” value came to 82% and the cAMP antagonism log was -8.1 log M. In the assay with human GIP receptor [2], the “cAMP agonism % Emax” value came out at 0%, the “cAMP antagonism” value worked out at 11.9 nM, the “cAMP antagonism % inhib” value worked out at 93% and the “cAMP antagonism pIC50” value amounted to 7.9.

B5: AT474 (peptide)
peptide: EGTFISDYSIAMDKIK(C16 diacid)QQDFVNWLLAQKGP-OH
modifications: N-terminus assumed
SMILES: CC[C@H](C)[C@H](NC(=O)[C@H](CO)NC(=O)[C@H](Cc1ccc(O)cc1)NC(=O)[C@H](CC(=O)O)NC(=O)[C@H](CO)NC(=O)[C@@H](NC(=O)[C@H](Cc1ccccc1)NC(=O)[C@@H](NC(=O)CNC(=O)[C@@H](N)CCC(=O)O)[C@@H](C)O)[C@@H](C)CC)C(=O)N[C@@H](C)C(=O)N[C@@H](CCSC)C(=O)N[C@@H](CC(=O)O)C(=O)N[C@@H](CCCCN)C(=O)N[C@H](C(=O)N[C@@H](CCCCNC(=O)CCCCCCCCCCCCCCC(=O)O)C(=O)N[C@@H](CCC(N)=O)C(=O)N[C@@H](CCC(N)=O)C(=O)N[C@@H](CC(=O)O)C(=O)N[C@@H](Cc1ccccc1)C(=O)N[C@H](C(=O)N[C@@H](CC(N)=O)C(=O)N[C@@H](Cc1c[nH]c2ccccc12)C(=O)N[C@@H](CC(C)C)C(=O)N[C@@H](CC(C)C)C(=O)N[C@@H](C)C(=O)N[C@@H](CCC(N)=O)C(=O)N[C@@H](CCCCN)C(=O)NCC(=O)N1CCC[C@H]1C(=O)O)C(C)C)[C@@H](C)CC
As for B5, in the assay with human GIP receptor [1], the “cAMP agonism Emax” value stood at 5.9, the “cAMP antagonism” value is 4 nM, the “cAMP antagonism % inhib” value was determined as 100% and the cAMP antagonism log was -8.4 log M. For the same molecule, in the assay with human GIP receptor [2], the “cAMP agonism % Emax” value turned out to be 0%, the “cAMP antagonism” value turned out to be 13.6 nM, the “cAMP antagonism % inhib” value was 86% and the “cAMP antagonism pIC50” value is 7.9.

B6: AT471 (peptide)
peptide: EGTFISDYSIAMDKIK(C16 diacid)QQDFVNWLLAQKGPSSG-OH
modifications: N-terminus assumed
SMILES: CC[C@H](C)[C@H](NC(=O)[C@H](CO)NC(=O)[C@H](Cc1ccc(O)cc1)NC(=O)[C@H](CC(=O)O)NC(=O)[C@H](CO)NC(=O)[C@@H](NC(=O)[C@H](Cc1ccccc1)NC(=O)[C@@H](NC(=O)CNC(=O)[C@@H](N)CCC(=O)O)[C@@H](C)O)[C@@H](C)CC)C(=O)N[C@@H](C)C(=O)N[C@@H](CCSC)C(=O)N[C@@H](CC(=O)O)C(=O)N[C@@H](CCCCN)C(=O)N[C@H](C(=O)N[C@@H](CCCCNC(=O)CCCCCCCCCCCCCCC(=O)O)C(=O)N[C@@H](CCC(N)=O)C(=O)N[C@@H](CCC(N)=O)C(=O)N[C@@H](CC(=O)O)C(=O)N[C@@H](Cc1ccccc1)C(=O)N[C@H](C(=O)N[C@@H](CC(N)=O)C(=O)N[C@@H](Cc1c[nH]c2ccccc12)C(=O)N[C@@H](CC(C)C)C(=O)N[C@@H](CC(C)C)C(=O)N[C@@H](C)C(=O)N[C@@H](CCC(N)=O)C(=O)N[C@@H](CCCCN)C(=O)NCC(=O)N1CCC[C@H]1C(=O)N[C@@H](CO)C(=O)N[C@@H](CO)C(=O)NCC(=O)O)C(C)C)[C@@H](C)CC
Take B6: in the assay with human GIP receptor [1], the “cAMP antagonism” value is 11 nM, the “cAMP antagonism % inhib” value worked out at 100% and the cAMP antagonism log is -7.9 log M. In the assay with human GIP receptor [2], the “cAMP agonism % Emax” value amounted to 0%, the “cAMP antagonism” value was 6.81 nM, the “cAMP antagonism % inhib” value was 87% and the “cAMP antagonism pIC50” value was 8.2.
